Reference: paper PMC7159994

Target: GST-IRP2Δ73 (human) (UniProt P48200)
Experiment: AlphaScreen or HTRF

- IC50: 0.12 nM
Substance: FBXL5C492Δ-SKP1 complex (tag-free) (from UniProt Q9UKA1 200-691; P63208 1-163)
